The data set concerns the molecule itself. As to the kind of experiment: cross-linking; BS3 cross-linking of purified GST-Mps1 (10:1 protein:BS3, 2 h on ice; 50 mM HEPES pH 7.5, 250 mM KCl, 0.05% NP-40, 1 mM DTT), NATIVE-PAGE, bands of cross-linked dimers excised, cross-linked peptides identified by mass spectrometry.

B1: GST-Mps1-WT (enzyme, human, UniProt P33981 1-857, looked up)
chain: MESEDLSGRELTIDSIMNKVRDIKNKFKNEDLTDELSLNKISADTTDNSGTVNQIMMMANNPEDWLSLLLKLEKNSVPLSDALLNKLIGRYSQAIEALPPDKYGQNESFARIQVRFAELKAIQEPDDARDYFQMARANCKKFAFVHISFAQFELSQGNVKKSKQLLQKAVERGAVPLEMLEIALRNLNLQKKQLLSEEEKKNLSASTVLTAQESFSGSLGHLQNRNNSCDSRGQTTKARFLYGENMPPQDAEIGYRNSLRQTNKTKQSCPFGRVPVNLLNSPDCDVKTDDSVVPCFMKRQTSRSECRDLVVPGSKPSGNDSCELRNLKSVQNSHFKEPLVSDEKSSELIITDSITLKNKTESSLLAKLEETKEYQEPEVPESNQKQWQSKRKSECINQNPAASSNHWQIPELARKVNTEQKHTTFEQPVFSVSKQSPPISTSKWFDPKSICKTPSSNTLDDYMSCFRTPVVKNDFPPACQLSTPYGQPACFQQQQHQILATPLQNLQVLASSSANECISVKGRIYSILKQIGSGGSSKVFQVLNEKKQIYAIKYVNLEEADNQTLDSYRNEIAYLNKLQQHSDKIIRLYDYEITDQYIYMVMECGNIDLNSWLKKKKSIDPWERKSYWKNMLEAVHTIHQHGIVHSDLKPANFLIVDGMLKLIDFGIANQMQPDTTSVVKDSQVGTVNYMPPEAIKDMSSSRENGKSKSKISPKSDVWSLGCILYYMTYGKTPFQQIINQISKLHAIIDPNHEIEFPDIPEKDLQDVLKCCLKRDPKQRISIPELLAHPYVQIQTHPVNQMAKGTTEEMKYVLGQLVGLNSPNSILKAAKTLYEHYSGGESHNSSSSKTFEKKRGKK
notes: Mps1 kinase, human, wild type, full-length polypeptide; also called active Mps1; source: baculovirus-infected Sf9 cells, purified (glutathione-agarose, eluted with glutathione)
As for B1, the binding result is given as “binds”.

B2: GST-Mps1-KD (enzyme, human, UniProt P33981 1-857, looked up)
chain: MESEDLSGRELTIDSIMNKVRDIKNKFKNEDLTDELSLNKISADTTDNSGTVNQIMMMANNPEDWLSLLLKLEKNSVPLSDALLNKLIGRYSQAIEALPPDKYGQNESFARIQVRFAELKAIQEPDDARDYFQMARANCKKFAFVHISFAQFELSQGNVKKSKQLLQKAVERGAVPLEMLEIALRNLNLQKKQLLSEEEKKNLSASTVLTAQESFSGSLGHLQNRNNSCDSRGQTTKARFLYGENMPPQDAEIGYRNSLRQTNKTKQSCPFGRVPVNLLNSPDCDVKTDDSVVPCFMKRQTSRSECRDLVVPGSKPSGNDSCELRNLKSVQNSHFKEPLVSDEKSSELIITDSITLKNKTESSLLAKLEETKEYQEPEVPESNQKQWQSKRKSECINQNPAASSNHWQIPELARKVNTEQKHTTFEQPVFSVSKQSPPISTSKWFDPKSICKTPSSNTLDDYMSCFRTPVVKNDFPPACQLSTPYGQPACFQQQQHQILATPLQNLQVLASSSANECISVKGRIYSILKQIGSGGSSKVFQVLNEKKQIYAIKYVNLEEADNQTLDSYRNEIAYLNKLQQHSDKIIRLYDYEITDQYIYMVMECGNIDLNSWLKKKKSIDPWERKSYWKNMLEAVHTIHQHGIVHSDLKPANFLIVDGMLKLIAFGIANQMQPDTTSVVKDSQVGTVNYMPPEAIKDMSSSRENGKSKSKISPKSDVWSLGCILYYMTYGKTPFQQIINQISKLHAIIDPNHEIEFPDIPEKDLQDVLKCCLKRDPKQRISIPELLAHPYVQIQTHPVNQMAKGTTEEMKYVLGQLVGLNSPNSILKAAKTLYEHYSGGESHNSSSSKTFEKKRGKK
notes: Mps1 kinase, human, kinase-dead, full-length polypeptide; also called kinase-dead (D664A); source: baculovirus-infected Sf9 cells, purified (glutathione-agarose, eluted with glutathione)
Take B2: the binding result is “binds”.

Source of the values: article PMC5863767, “Mps1 Phosphorylates Its N-Terminal Extension to Relieve Autoinhibition and Activate the Spindle Assembly Checkpoint” (Current Biology, 2018).
